Data set [1] has as its target T1, GST-GmABAS1 (Glycine max/soja (soybean; the cloned …, UniProt A0A3Q9B5G2 1-289).
T1 sequence: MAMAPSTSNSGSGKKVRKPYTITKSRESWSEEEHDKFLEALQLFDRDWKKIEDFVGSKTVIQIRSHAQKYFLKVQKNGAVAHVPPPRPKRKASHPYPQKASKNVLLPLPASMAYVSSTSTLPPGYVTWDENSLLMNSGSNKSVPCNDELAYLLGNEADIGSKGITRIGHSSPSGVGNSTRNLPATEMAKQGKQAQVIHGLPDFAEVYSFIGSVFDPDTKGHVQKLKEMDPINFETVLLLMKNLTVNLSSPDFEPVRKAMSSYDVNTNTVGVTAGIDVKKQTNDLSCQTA
In words: EMSA; 72 pmol protein, 10 pmol probe; 150 mM KCl, 10 mM Tris pH 7.4, 0.1 mM EDTA, 0.1 mM DTT, EDTA-free protease inhibitor; room temperature 20 min; 6% (non-competitive) or 10% (competitive) acrylamide gel in TBE. The settings on record: protein: recombinant; tags: N-terminal GST (pGEX-4T-1); blunt. On the technique in general: A gel shift assay detects complexes by their altered migration in electrophoresis.

Data set [2] addresses T1, GST-GmABAS1. In words: EMSA; 150 mM KCl, 10 mM Tris pH 7.4, 0.1 mM EDTA, 0.1 mM DTT, EDTA-free protease inhibitor; room temperature 20 min; 6% (non-competitive) or 10% (competitive) acrylamide gel in TBE. The settings on record: protein: recombinant; tags: N-terminal GST (pGEX-4T-1); label: none (SYBR Green stain); blunt.

Consider two molecules from PMC7260724, “ABAS1 from soybean is a 1R-subtype MYB transcriptional repressor that enhances ABA sensitivity”.

B1: Glyma.01G060300 native probe, 6-FAM (dsDNA)
DNA 1: TGAAAAATCGTGTCAGTGTCGCCACGTG
DNA 2: CACGTGGCGACACTGACACGATTTTTCA
Take B1: in the data set with GST-GmABAS1 [1], the binding result is on record as “binds”.

B2: Glyma.01G060300 native probe (dsDNA)
DNA 1: TGAAAAATCGTGTCAGTGTCGCCACGTG
DNA 2: CACGTGGCGACACTGACACGATTTTTCA
Consider B2, for which the binding result with GST-GmABAS1 [2] is reported as “binds”.
